Key:
[1] = target: human EF-2 mutant (G717R) (human) (UniProt P13639); assay: cell-based or functional assay
[2] = target: human elongation factor 2 (EF-2) (human) (UniProt P13639); assay: cell-based or functional assay

DT-A(E148S) (from UniProt P00587 26-210) (enzyme)
GFP-positive cells relative to control vector pNL-GFP-RRE-SA, DT-resistant EF-2 mutant cell line 5H7 [1]: 70 to 80%

DT-AΔN (from UniProt P00587 39-210) (enzyme)
GFP-positive cells relative to control vector pNL-GFP-RRE-SA, DT-resistant EF-2 mutant cell line 5H7 [1]: 70 to 80%

DT-A(E148D) (from UniProt P00587 26-210) (enzyme)
GFP-positive cells relative to control vector pNL-GFP-RRE-SA, DT-resistant EF-2 mutant cell line 5H7 [1]: 70 to 80%

wild type diphtheria toxin A chain (DT-A) (from UniProt P00587 26-210) (enzyme)
GFP-positive cells after cotransfection with pNL-DT-GFP-RRE-SA plus pCMVΔR8.2, EF-2 mutant clone 4H10 (FIG. 4A) [1]: 14%
GFP-positive cells after cotransfection with pNL-DT-GFP-RRE-SA plus pCMVΔR8.2, EF-2 mutant clone 5E12 (FIG. 4A) [1]: 9%
GFP-positive cells after cotransfection with pNL-DT-GFP-RRE-SA plus pCMVΔR8.2, EF-2 mutant clone 5H7 (FIG. 4A) [1]: 46%
GFP-positive cells after cotransfection with pNL-DT-GFP-RRE-SA plus pCMVΔR8.2, EF-2 mutant clone AB1 (FIG. 4A) [1]: 24%
GFP-positive cells after cotransfection with pNL-DT-GFP-RRE-SA plus pCMVΔR8.2, EF-2 mutant clone CB2 (FIG. 4A) [1]: 28%
GFP-positive cells, 5H7 cells (FIG. 4B; control pNL-DT(R)-GFP-RRE-SA gave 64%) [1]: 54%
share of 5H7 cells surviving the toxin [1]: > 80%
GFP-positive cells after cotransfection with pNL-DT-GFP-RRE-SA plus pCMVΔR8.2, parental HEK293T cells (FIG. 4A) [2]: 0%
GFP-positive cells, HEK293T cells (FIG. 4B; control pNL-DT(R)-GFP-RRE-SA gave 43%) [2]: 0%

DT-A(176) (from UniProt P00587 26-210) (enzyme)
GFP-positive cells relative to control vector pNL-GFP-RRE-SA, DT-resistant EF-2 mutant cell line 5H7 [1]: 70 to 80%

Reference: patent US20110104789A1
